Reference: US20180312578A1 (Ablynx, published 2018)
Numbering of substitutions follows the chain as printed. In names and notes the source's numbering stands.

B1: Reference C (SEQ ID NO: 3) (VHH)
VHH: EVQLLESGGGLVQPGGSLRLSCAASGFTFDTSSMLWVRQAPGKGLEWVSVIHQSGTPTYYADSVKGRFTISRDNSKNTLYLQMNSLRAEDTAVYYCAKFPSSRMKFDYWGQGTLVTVSS
notes: Heavy-chain immunoglobulin single variable domain (VH-derived domain antibody); Captured on human serum albumin; also called DOM7r-92-100
B2: Reference D (SEQ ID NO: 4) (VHH)
VHH: B1 VHH
notes: Captured on human serum albumin; also called DOM7r-92-104
B3: Reference D+L11V+V89L (SEQ ID NO: 93) (VHH)
VHH: B1 VHH with L11V, V93L
B4: Reference D+L11V+V89L+T110K (SEQ ID NO: 94) (VHH)
VHH: B1 VHH with L11V, V93L, T116K

molecular target: T1, human serum albumin (human, UniProt P02768 25-609); experiment: ProteOn SPR, capture on immobilised HSA
T1 construct: also called HSA
Protocol: In case of binding of pre-existing antibodies on Nanobodies captured on human serum albumin (HSA) was evaluated using the ProteOn XPR36 (Bio-Rad Laboratories, Inc.). PBS/Tween (phosphate buffered saline, pH7.4, 0.005% Tween20) was used as running buffer and the experiments were performed at 25° C. The ligand lanes of a ProteOn GLC Sensor Chip were activated with EDC/NHS (flow rate 30 μl/min) and HSA was injected at 10 μg/ml in ProteOn Acetate buffer pH4.5 (flow rate 100 μl/min) to render immobilization levels of approximately 3200 RU. After immobilization, surfaces were deactivated with ethanolamine HCl (flow rate 30 μl/min). Nanobodies were injected for 2 minutes at 45 μl/min over the HSA surface to render a Nanobody capture level of approximately 200 RU. The samples containing pre-existing antibodies were centrifuged for 2 minutes at 14,000 rpm and supernatant was diluted 1:10 in PBS-Tween20 (0.005%) before being injected for 2 minutes at 45 μl/min followed by a subsequent 400 seconds dissociation step. After each cycle (i.e. before a new Nanobody capture and blood sample injection step) the HSA surfaces were regenerated with a 2 minute injection of HCl (100 mM) at 45 μl/min. Sensorgram processing and data analysis was performed with ProteOn Manager 3.1.0 (Bio-Rad Laboratories, Inc.). Sensorgrams showing pre-existing antibody binding were obtained after double referencing by subtracting 1) Nanobody-HSA dissociation and 2) non-specific binding to reference ligand lane.

| binding result | Binder |
| --- | --- |
| binds | B1 |
| binds | B2 |
| binds | B3 |
| binds | B4 |
